Test results from patent US20240368275A1 (ELPIS BIOPHARMACEUTICALS, published 2024).
Where two headings read alike, the source gives them in different places.

How the values were obtained:
CD3 on Jurkat cells [1] = target: T1, CD3 on Jurkat cells (UniProt P07766 23-207, limits assumed); assay: cell-based or functional assay
[2] = target: T2, Nectin4 on Nectin4 positive cancer cell lines (T47D, HT1376, HCC1500, HT-29) (human, UniProt Q96NY8 32-510); assay: cell-based or functional assay
T2 sequence (looked up): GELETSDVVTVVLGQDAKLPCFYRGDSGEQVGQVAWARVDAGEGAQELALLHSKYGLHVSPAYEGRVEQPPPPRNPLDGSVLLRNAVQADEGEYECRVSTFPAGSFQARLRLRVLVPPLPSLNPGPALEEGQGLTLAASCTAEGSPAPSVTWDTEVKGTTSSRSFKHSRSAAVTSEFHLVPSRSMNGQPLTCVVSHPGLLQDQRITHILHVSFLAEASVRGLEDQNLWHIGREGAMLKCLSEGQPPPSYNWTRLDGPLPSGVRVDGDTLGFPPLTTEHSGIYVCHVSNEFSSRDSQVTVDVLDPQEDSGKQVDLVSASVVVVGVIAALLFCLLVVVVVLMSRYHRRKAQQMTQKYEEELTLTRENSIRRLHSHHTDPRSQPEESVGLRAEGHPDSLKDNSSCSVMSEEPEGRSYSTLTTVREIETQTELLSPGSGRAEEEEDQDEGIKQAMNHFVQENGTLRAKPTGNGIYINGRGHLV

[3] = target: T2, Nectin4 on Nectin4 positive cancer cell …; assay: cell-based or functional assay; remark: listed apart in the source
[4] = target: T2, Nectin4 on Nectin4 positive cancer cell …; assay: flow cytometry on T47D cells
[5] = target: T2, Nectin4 on Nectin4 positive cancer cell …; assay: flow cytometry on HT1376 cells
CD3 on Jurkat cells [6] = target: T1, CD3 on Jurkat cells; assay: flow cytometry on Jurkat cells
Experimental: (§1) Jurkat cells were plated at 100,000 cells/well in a 96-well plate with 50 μL of full media. Anti-Nectin4/CD3 antibodies were 3-fold serial titrated from 20 nM. 50 μL was added to the cells and incubated for 1 hours at room temperature with shaking. Samples were washed one time with flow buffer. […] Samples were washed once with flow buffer. Samples were stained with 100 uL Zombie Fixable Viability Dyes at 1:800 dilution per well and incubated in dark at room temperature for 30 mins. Samples were spun down at 1300 rpm for 5 minutes and washed once with 200 uL flow buffer. Reconstituted samples in 200 uL of flow buffer and read on Attune NxT cytometer. EC50 values for CD3 binding were calculated using Prism 8.1 software.

CD3 on Jurkat cells [7] = target: T1, CD3 on Jurkat cells; assay: flow cytometry on Jurkat cells; remark: listed apart in the source
Experimental: as §1
Similar methods of above mentioned were used to measure the binding activities of anti-Nectin4/CD3/IL-2 complexes to CHO/Nectin4 and Jurkat cells, respectively.

[8] = target: T3, full-length human Nectin4 with C-terminal flag and Myc tags on CHO cells (human, UniProt Q96NY8 32-510); assay: flow cytometry on CHO/Nectin4 cells
T3 construct: whole, on cells; also called Nectin4/CHO; CHO/Nectin4; not shown: C-terminal flag and Myc tags of pCMV6-Entry vector
T3 sequence (looked up): T2 sequence (looked up)
Experimental: Nectin4/CHO Nectin4 cells were plated at 100,000 cells/well in a 96-well plate in 50 μL of full media. Cells were rested 1 hour at 37° C. Anti-Nectin4/CD3 was 3-fold serial titrated from 50 nM. 50 μL was added to the cells and incubated for 1 hours with shaking. Samples were washed one time with flow buffer. […] Samples were washed once with flow buffer. Samples were stained with 100 uL Zombie Fixable Viability Dyes (1:800 dilution) per well and incubated in dark at room temperature for 30 mins. Samples were spun down at 1200 rpm for 5 minutes and washed once with 200 uL flow buffer. Reconstituted samples in 200 uL of flow buffer and read on Attune NxT cytometer. EC₅₀ values for Nectin4 Binding were determined using Prism software.

[9] = target: T4, human CD3E HIS tagged protein (human, UniProt P07766 23-126); assay: SPR Biacore T200, bispecific captured on Protein A chip, CD3E-HIS injected
T4 construct: not shown: HIS tag
Experimental: (§2) The assay was run with Biacore T200 control software version 2.0. For each cycle, 1 ug/mL of anti-hNectin4/CD3 antibody was captured for 60 seconds at flow rate of 10 ul/min on flow cell 2 in 1×HBSP buffer on Protein A sensor chip. 2-fold serial diluted CD3E-HIS or hNectin4-HIS tagged protein was injected onto both reference flow cell 1 and anti-Nectin4/CD3 bispecific captured flow cell 2 for 150 seconds at flow rate of 30 ul/mins followed by wash for 300 seconds. The flow cells were then regenerated with Glycine pH2 for 60 seconds at flow rate of 30 ul/mins. 8 concentration points from 100 nM-0 nM (CD3E-HIS) or 300 nM-0 nM (Nectin4-HIS) was assayed per anti-Nectin4 IgG in a 96 well plate. The kinetics of Anti-Nectin4/CD3 bispecific binding to CD3E and Nectin4 proteins was analyzed with Biacore T200 evaluation software version 3.0. The specific binding response unit was derived from subtraction of binding to reference flow cell 1 from antibody captured flow cell 2. Table 10 below listed the kinetics results. ND means not determined. NA means data not available.

[10] = target: T5, human Nectin4-HIS tagged recombinant protein (human, UniProt Q96NY8 32-349); assay: ELISA, coated Nectin4 HIS tagged protein, bispecific titrated, anti-Human HRP
T5 construct: also called hNectin4-HIS; Nectin4 HIS tagged protein; not shown: HIS tag
T5 sequence (looked up): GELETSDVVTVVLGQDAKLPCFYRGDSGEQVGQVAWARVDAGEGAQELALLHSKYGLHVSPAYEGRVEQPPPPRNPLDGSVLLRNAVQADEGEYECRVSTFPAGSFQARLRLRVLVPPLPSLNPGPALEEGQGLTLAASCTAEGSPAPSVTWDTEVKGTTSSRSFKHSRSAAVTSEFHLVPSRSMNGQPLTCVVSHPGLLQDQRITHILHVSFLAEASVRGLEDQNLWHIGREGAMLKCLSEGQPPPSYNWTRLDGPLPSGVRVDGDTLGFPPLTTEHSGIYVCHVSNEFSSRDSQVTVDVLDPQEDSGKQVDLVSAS
Experimental: (§3) An ELISA assay was developed to determine the EC₅₀ of anti-Nectin4/CD3 bispecific antibodies. Briefly, 384 well plate was immobilized with human CD3E or Nectin4 HIS tagged protein at final concentration of 2 ug/mL in 1×PBS in total volume of 25 uL per well. The plate was incubated overnight at 4° C. followed by blocking with 80 uL of superblock per well for 1 hour. Purified anti-Nectin4/CD3 was 3-fold serial titrated from 100 nM. 25 uL was added to human Nectin4/CD3 immobilized wells and incubated for 1 hour with shaking. The CD3E or Nectin4 binding was detected by adding 25 uL of anti-Human HRP diluted at 1:10000 in 1×PBST. In between each step, the plate was washed 3 times with […] in a plate washer. The plate was then developed with 20 ul of TMB substrate for 5 mins and stopped by adding 20 ul of 2N sulfuric acid. The plate was read at OD450 nm Biotek plate reader and then plotted in Prism 8.1 software to calculate EC50.

[11] = target: T5, human Nectin4-HIS tagged recombinant …; assay: SPR Biacore T200, bispecific captured on Protein A chip, hNectin4-HIS injected
Experimental: as §2

[12] = target: T4, human CD3E HIS tagged protein; assay: ELISA, coated human CD3E HIS tagged protein, bispecific titrated, anti-Human HRP
Experimental: as §3

T1 sequence (P07766 23-207 limits assumed): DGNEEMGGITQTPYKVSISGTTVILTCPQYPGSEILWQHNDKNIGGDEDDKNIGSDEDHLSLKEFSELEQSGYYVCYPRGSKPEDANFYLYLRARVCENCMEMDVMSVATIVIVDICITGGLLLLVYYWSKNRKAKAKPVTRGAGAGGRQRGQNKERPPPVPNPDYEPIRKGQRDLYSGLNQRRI
T4 sequence (P07766 23-126 limits assumed): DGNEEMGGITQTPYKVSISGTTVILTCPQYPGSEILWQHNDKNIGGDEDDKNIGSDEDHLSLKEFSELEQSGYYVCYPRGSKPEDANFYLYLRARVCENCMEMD

B1: EP458/EP378/EP289 anti-Nectin4/CD3 bispecific antibody (bispecific antibody)
heavy 1: EVQLVQSGAEVKKPGASVKVSCKASGYTFTGYYMHWVRQAPGQGLEWMGRINPNSGGTNYAQKFQGRVTMTRDTSISTAYMELSGLRSDDTAVYFCARVTYNIGWYIDYWGQGTLVTVSSASTKGPSVFPLAPSSKSTSGGTAALGCLVKDYFPEPVTVSWNSGALTSGVHTFPAVLQSSGLYSLSSVVTVPSSSLGTQTYICNVNHKPSNTKVDKKVEPKSCDGGGGSGGGGSEVQLVESGGGLVQPGGSLRLSCAASGFTFSTYAMNWVRQAPGKGLEWVGRIRSKYNNYATYYADSVKGRFTISRDDSKNTLYLQMNSLRAEDTAVYYCVRHGNFGDSYVSWFAYWGQGTLVTVSSGGGGSGGGGSGGGGSGGGGSQAVVTQEPSLTVSPGGTVTLTCGSSTGAVTTSNYANWVQQKPGKSPRGLIGGTNKRAPGVPARFSGSLLGGKAALTISGAQPEDEADYYCALWYSNHWVFGGGTKLTVLEPKSCDKTHTCPPCPAPEAAGGPSVFLFPPKPKDTLMISRTPEVTCVVVDVSHEDPEVKFNWYVDGVEVHNAKTKPREEQYNSTYRVVSVLTVLHQDWLNGKEYKCKVSNKALGAPIEKTISKAKGQPREPQVCTLPPSRDELTKNQVSLSCAVKGFYPSDIAVEWESNGQPENNYKTTPPVLDSDGSFKLVSKLTVDKSRWQQGNVFSCSVMHEALHNHYTQKSLSLSPGK
heavy 2: not shown
light: QAVVTQPPSVSVAPGKTATITCGGNNIGSKGVHWYQQKPGQAPVLVIYYDTDRPSGIPERLSGSNSGNTATLTISRVEAGDEADYYCQVWDSSSDHPVFGGGTKLTVLGQPKANPTVTLFPPSSEELQANKATLVCLISDFYPGAVTVAWKADGSPVKAGVETTKPSKQSNNKYAASSYLSLTPEQWKSHRSYSCQVTHEGSTVEKTVAPTECS
notes: Bivalent for Nectin4: B09 heavy chain with sp34 scFv between CH1 and hinge, hole (EP458); B09 heavy chain knob (EP378); light chain EP289 pairs with both; also called EP458/378/289
For B1, the “NFAT reporter EC50” value (CD3 on Jurkat cells [1]) was 0.0004 nM, the “EC50 Values in CTL Assay Against PBMC” value [2] was 0.0014 nM and the “EC50 Values in CTL Assay Against T47D Cancer Cells (PBMC)” value [3] was 0.0047 nM. The “EC50 Values in CTL Assay Against T47D Cancer Cells (T cell)” value [3] was 0.0064 nM, the EC50 [4] was 0.044 nM and the EC50 [5] was 0.14 nM. It also gave an EC50 (CD3 on Jurkat cells [6]) of 4.7 nM, an EC50 (CD3 on Jurkat cells [7]) of 4.37 nM and an EC50 [8] of 0.146 nM. The Kd [9] was 3.26 nM, the koff [9] was 0.000739 s⁻¹ and the kon [9] was 227000 M⁻¹ s⁻¹. It also gave an EC50 [10] of 0.21 nM, a Kd [11] of 3.67 nM and a koff [11] of 0.000472 s⁻¹. It also gave a kon [11] of 129000 M⁻¹ s⁻¹ and an EC50 [12] of 0.011 nM.
